Results as given in article PMC6541275.

Target: Wild-type Microplasmin (human) (UniProt P00747)
Sequence of UniProt P00747 (P00747 whole entry): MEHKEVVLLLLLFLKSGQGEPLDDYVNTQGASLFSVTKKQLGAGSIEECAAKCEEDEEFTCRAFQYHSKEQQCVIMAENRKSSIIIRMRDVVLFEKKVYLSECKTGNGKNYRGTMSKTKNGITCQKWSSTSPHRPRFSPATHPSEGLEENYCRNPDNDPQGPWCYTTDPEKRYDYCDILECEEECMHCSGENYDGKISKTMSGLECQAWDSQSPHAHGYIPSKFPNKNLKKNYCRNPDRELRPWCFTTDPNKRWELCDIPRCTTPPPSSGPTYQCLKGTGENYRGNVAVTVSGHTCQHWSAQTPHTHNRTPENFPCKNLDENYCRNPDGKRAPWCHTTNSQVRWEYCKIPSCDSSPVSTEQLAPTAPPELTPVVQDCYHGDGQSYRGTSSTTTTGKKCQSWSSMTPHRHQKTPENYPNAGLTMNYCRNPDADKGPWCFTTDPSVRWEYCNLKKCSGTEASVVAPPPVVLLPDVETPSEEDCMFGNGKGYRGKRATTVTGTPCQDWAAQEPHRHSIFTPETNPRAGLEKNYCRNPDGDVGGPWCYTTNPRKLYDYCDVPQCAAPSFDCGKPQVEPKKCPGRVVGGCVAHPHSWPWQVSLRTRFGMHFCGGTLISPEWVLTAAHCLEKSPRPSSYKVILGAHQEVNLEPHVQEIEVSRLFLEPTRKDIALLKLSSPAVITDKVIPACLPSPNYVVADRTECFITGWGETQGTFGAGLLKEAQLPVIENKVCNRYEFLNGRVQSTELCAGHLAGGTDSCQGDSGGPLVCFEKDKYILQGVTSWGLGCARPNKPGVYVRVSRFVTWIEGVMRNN

B1: α2-antiplasmin (natural protein)
chain: NQEQVSPLTLLKLGNQEPGGQTALKSPPGVCSRDPTPEQTHRLARAMMAFTADLFSLVAQTSTCPNLILSPLSVALALSHLALGAQNHTLQRLQQVLHAGSGPCLPHLLSRLCQDLGPGAFRLAARMYLQKGFPIKEDFLEQSEQLFGAKPVSLTGKQEDDLANINQWVKEATEGKIQEFLSGLPEDTVLLLLNAIHFQGFWRNKFDPSLTQRDSFHLDEQFTVPVEMMQARTYPLRWFLLEQPEIQVAHFPFKNNMSFVVLVPTHFEWNVSQVLANLSWDTLHPPLVWERPTKVRLPKLYLKHQMDLVATLSQLGLQELFQAPDLRGISEQSLVVSGVQHQSTLELSEVGVEAAAATSIAMSRMSLSSFSVNRPFLFFIFEDTTGLPLFVGSVRNPNPSAPRELKEQQDSPGNKDFLQSLKGFPRGDKLFGPDLKLVPPMEEDYPQFGSPK
  In vitro half-life of inactivation by α2-antiplasmin: residual amidolytic activity (Chromozym PL, 405nm) of 20nM microplasmin with 60nM antiplasmin, 100mM sodium phosphate pH 7.2, 25°C, 15sec-30 min: 5 min
